T1: gp32 single-stranded DNA binding protein (Enterobacteria phage T4, UniProt P03695 P03695:1-301)
T1 sequence: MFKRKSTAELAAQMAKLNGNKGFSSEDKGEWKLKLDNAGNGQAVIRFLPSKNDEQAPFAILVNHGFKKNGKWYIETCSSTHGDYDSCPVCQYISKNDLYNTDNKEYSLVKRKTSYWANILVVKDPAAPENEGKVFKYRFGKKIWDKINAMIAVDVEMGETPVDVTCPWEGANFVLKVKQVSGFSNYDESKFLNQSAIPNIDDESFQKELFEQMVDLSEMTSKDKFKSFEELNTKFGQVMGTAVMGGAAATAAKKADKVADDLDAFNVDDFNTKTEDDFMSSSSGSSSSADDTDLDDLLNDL


Experiments:
[1] = target: T1, gp32 single-stranded DNA binding protein; assay: little or no fluorescence increase; details: tags: New England Biolabs; label: fluorophore and quencher
Protocol: (§1) The effect of the single-strand binding protein, bacteriophage T4 gp32 (New England Biolabs), on signal from the same oligonucleotide probes used with UvsX was also elucidated. Similar concentrations of oligonucleotide probes to those used with UvsX were incubated in the presence or absence of 0.25 mg/ml of gp32 and 200 nM complementary template ((SEQ ID NO: 34 for probes with SEQ ID NO 1-8 or SEQ ID NO: 44 for probes with SEQ ID NO: 9 or 10) in a buffer containing 20 mM Tris-acetate pH 7.9, 50 mM potassium acetate, 10 mM Magnesium Acetate and 1 mM DTT.

RecA [2] = target: T2, RecA (Escherichia coli, UniProt P0A7G6 P0A7G6:2-353); assay: no significant fluorescence increase; Mg, ATP; details: tags: New England Biolabs; label: fluorophore and quencher
Protocol: (§2) The effect of Escherichia coli recombinase, RecA (New England Biolabs) on signal from oligonucleotide probes was also elucidated (FIG. 1d). Similar concentrations of oligonucleotide probes to those used in FIGS. 1a and 1b were incubated in the presence or absence of 100 μg/ml of RecA in a buffer containing 70 mM Tris-HCl pH 7.6.10 mM MgCl₂, 5 mM DTT and 10 mM ATP. […] However, the increase was not as high as that seen with T4 UvsX.

UvsX recombinase [3] = target: T3, UvsX recombinase (Enterobacteria phage T4, UniProt P04529 P04529:1-391); assay: probe remained quenched; Mg, ATP, 40 C; details: label: fluorophore and quencher
Protocol: (§3) The oligonucleotide probes were incubated in the presence or absence of 200 nM complementary template (SEQ ID NO: 34 for probes with SEQ ID NO 1-8, or SEQ ID NO: 44 for probes with SEQ ID NO 9 or 10) and 5 μM UvsX in buffer containing 20 mM Tris-acetate pH 8.0, 10 mM Magnesium acetate, 2 mM ATP, 60 mM Tris-Phosphocreatine and 0.025 U/μl Creatine Kinase. Fluorescence was measured after 20 minutes incubation at 40 degrees centigrade.

UvsX recombinase [4] = target: T3, UvsX recombinase; assay: fluorescence dequenching; 5 uM UvsX, Mg, ATP, 40 C; details: label: fluorophore and quencher
Protocol: as §3

[5] = target: T1, gp32 single-stranded DNA binding protein; assay: fluorescence dequenching; 0.25 mg/ml gp32, Mg, K acetate; details: tags: New England Biolabs; label: fluorophore and quencher
Protocol: as §1

RecA [6] = target: T2, RecA; assay: fluorescence increase, less than UvsX; Mg, ATP; details: tags: New England Biolabs; label: fluorophore and quencher
Protocol: as §2

T2 sequence (P0A7G6 2-353, one chain of several): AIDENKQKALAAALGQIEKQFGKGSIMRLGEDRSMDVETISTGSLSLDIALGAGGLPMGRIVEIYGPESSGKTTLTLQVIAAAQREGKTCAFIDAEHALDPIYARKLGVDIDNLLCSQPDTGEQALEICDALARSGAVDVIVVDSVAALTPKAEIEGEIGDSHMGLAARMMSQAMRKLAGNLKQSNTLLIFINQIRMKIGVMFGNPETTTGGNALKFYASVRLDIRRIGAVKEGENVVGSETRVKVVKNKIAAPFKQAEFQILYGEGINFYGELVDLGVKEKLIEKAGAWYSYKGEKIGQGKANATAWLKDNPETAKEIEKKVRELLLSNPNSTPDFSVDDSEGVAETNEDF
T3 sequence (P04529 whole entry, one chain of several): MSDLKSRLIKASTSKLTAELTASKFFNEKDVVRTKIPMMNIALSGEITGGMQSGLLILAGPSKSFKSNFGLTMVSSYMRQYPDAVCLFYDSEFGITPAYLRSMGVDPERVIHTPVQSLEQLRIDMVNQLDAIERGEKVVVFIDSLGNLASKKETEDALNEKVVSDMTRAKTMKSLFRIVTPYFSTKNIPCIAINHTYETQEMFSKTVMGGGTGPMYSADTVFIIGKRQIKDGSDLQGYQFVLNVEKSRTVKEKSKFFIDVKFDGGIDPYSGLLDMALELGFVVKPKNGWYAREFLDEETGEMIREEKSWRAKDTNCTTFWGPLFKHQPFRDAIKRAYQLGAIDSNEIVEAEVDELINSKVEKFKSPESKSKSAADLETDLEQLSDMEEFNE

Binder	binding result [1]	binding result (RecA [2])	binding result (UvsX recombinase [3])	binding result (UvsX recombinase [4])	binding result [5]	binding result (RecA [6])
ACGAAAGCCGAUGACUAAUGC (ssRNA, 2'-OMe) [2'-O-methyl RNA 21]	no binding	no binding	no binding	–	–	–
ACGAAAGCCGAUGACUAAUGC (ssRNA) [RNA 21]	no binding	no binding	no binding	–	–	–
AGCCGAUGACUAAUGC (ssRNA, 2'-F) [2'-fluoro RNA 16]	no binding	–	no binding	–	–	–
ACGAAAGCCGAUGACUAAUGC (ssRNA, 2'-F) [2'-fluoro RNA 21]	no binding	no binding	no binding	–	–	–
AGCCGAUGACUAAUGC (ssRNA) [RNA 16]	no binding	–	no binding	–	–	–
AGCCGATGACTAATGC (ssDNA) [DNA 16]	–	–	–	binds	binds	–
ACGAAAGCCGATGACTAATGC (ssDNA) [DNA 21]	–	–	–	binds	binds	binds
AGCCGAUGACUAAUGC (ssRNA, 2'-OMe) [2'-O-methyl RNA 16]	no binding	–	no binding	–	–	–
AGUUGAUGUGUA (XNA, LNA) [LNA 12]	no binding	no binding	no binding	–	–	–
